Test results as given in the nanobody polyreactivity screen of Harvey et al. (2022).

Assay: yeast display, Sf9 membrane polyspecificity reagent, FACS + sequencing; frameworks hold sequencing errors
How it was run: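 Synthetic nanobody libraries on Saccharomyces cerevisiae BJ5465 were galactose-induced for 36–48 hours, stained 1 hour at 4 °C with 10% biotinylated, detergent-solubilized Sf9 membrane reagent and enriched on streptavidin microbeads. FACS then separated cells into low and high (top ~1%) gates by anti-HA (expression) and streptavidin (reagent binding) fluorescence. Genes were colony-PCR amplified, MiSeq 2 × 250 sequenced and CDR-length filtered. A clone's polyreactivity label is that of its gate of origin.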

Sequence	polyreactivity (PSR sort gate)
QGQLVESGGGLVQAGGSLRLSCAASGRIFGHYAMGWYRQAPGKERELVAAIRWRGGSTYYADSVKGRFTISRDNAKNTVYLQMNSLKPEDTAVYYCARTNNGRFRIVDTRYDYWGQGNQVTVSS	low polyreactivity
QVQLQESGGGLAQAGGSLRLTCAASGTIFPADSMGWYRQAPGKERELVAGITSGANTYYADSVKGRFTISHDNAKNTVYLQMDSLIPEDIAVYYCGAPGSSTYDLEYWGQGTQVTVSS	high polyreactivity
QVQLVESGGGLVQAGGSLRLSCAASGSIFVQYAMGWYRQAPGKERELVATISDDGSTNYADSVKGRFTISRDNAKNTVYLQMNSLKPEDTAVYYCAADTYYYVGADDYWGQGTQVTVSS	low polyreactivity
QVQLVESGGGLVQAGGSLRLSCAASGSTFVRYVMGWYRQAPGKERELVAAISEGGGSTYYADSVKGRFTISRDNAKNTVYLQMNSLKPEDTAVYYCAAGRSNSYSPRRRVTYGYNYWGQGTQVTVSS	high polyreactivity
QVQLVESGGGLVQAGGSLRLSCAASGRIFNPNGMGWYRQAPGKERELVAVITRSGTSTYADSVKGRFTISRDNAKNTVYLQMNSLKPEDTAVYYFATRYRWTPYDYWGQGTQVTVSS	low polyreactivity
QVQLVESGGGLVQAGGSLRLSCAASGRTLRYYAMGWYRQAPGKERELVAAITSSDRTYYADSVKGRFTISRDNAKNTVYLQMNSLKPEVTAVYYCAAYRATQFGYYYWGQGTQVTVSS	high polyreactivity
QVQLGESGGRLVQAGGSLRLSCAASGSTFPTNAMGWSRQGPGKERELVAAITSTGSTYADSVKGRYTISRDNVKNTVYLQMNSVKPEDTAVYYCAADTQWTTPYDYWGQGTQVTVSS	low polyreactivity
QVQLVESGGGLVQAGGSLRLSCAASGRIFHYNAMGWYRQAPGKERELVARITWTGGSTYYADSVKGRFTISRDNAKNTVYLQMNSLKPEDNAVYYCAAKWSYTKGRYYYWGQGTQVTVSS	high polyreactivity
QVQLVDSGGGLVQAGGSLRLSCAASGSTFKINAMGWYRQAPGKERELVAAISSRGGPTYYADSVKGRFTISRDNAKNTVYLQMNRLKPEDTAVYYSAKRRGGSRPYYYWGQGTQVTVSS	high polyreactivity
QVQLVESGGGLVQAGGSLRLSCAASGSIFESYAMGLYRQAPGKERELVAALTSSGDSTYYADSVKGRFTISRDNAKNTVYLQMYSLNPEDTAVDYCAKRVPTYISTADWVSRYDYWGQGTQVTVSS	low polyreactivity
QVQLVESGRGLVQAGGSLRLSCAASGSTFGWYSMGWYRQAPGKERELVTAITSSGDSTYYADSVKGRFTISRDNAKNTVYLQMNSLKPEDTAVYYCAADYADLNDYWGQGTQVTVSS	low polyreactivity
QVQLVESGGGLVQAGGSLRLSCAATGRIFRYYAMGLYRQAPGNERELVAAIRRGGSTTYADSVKGRFTISRDNAKNTFYLQMNSLKPEDTAVYYCAATQYYRGYDYWGQGSQVTVSS	high polyreactivity
QVQLVESGGCLVQAGGSLRLSCAASGSIFDGNTMGWYRQAPGKERELVAAITWSGGSTYYADSVKGRFTISRDNAKNTVYLQMNSLKPEDTAVYYCAAEYWDSDPYDYWGQGTQVTVSS	low polyreactivity
QVQLVESGGGLVQAGGSLRLSCAASGSTLGRNAMGWDRQAPGKEREFVAAITYSTGSTYYADSVKGRFTISRDNAKNTVYVQMNSLKPEDTAVYYCAKGRLTRGYVTFEYWGQGTQVTGSS	high polyreactivity
QVQLVESGGGLVQAGGSLRLSCGASGSIFWVYAMGWYRQAPGKERELVAAISNSGSTNYADSVKGRFTISRDNAKNTVYLQMNSLKPADTAVYYCAKDSLVDHVGGYDYWGQGTQVTVSS	low polyreactivity
QVQLVESGGGLVQAGGSLRLSCAASGITFYRYAMGWYRQSPGKETQLVAAIRRAGSTYYADSVKGRFTISRDNAKNTVYLQMNSLKPEDTAVYYCAAPYRLEPLSTHGSWGQGTQVTVSS	high polyreactivity
QVQLVESGGGLVQAGGSLRLSCAASGSIFSNYAMGGYRQAPGKERELVAAISRNGGSTSYADSVKGRFTISRDNAKNTVYLQMNSLKPEDTAVYYCAKRYKTAQYYYWGQGTQVTVSS	high polyreactivity
HVQLVESGRGLVEAGGSLRLSCAAYGLGCTVNAMVWYIQAPGTERELVARIVWPGITYADSVKGRFTISLDNAMNTVYLQMNSQKPEDTAVYYCAAVWLHHSYYAKYDYWGQRTQVTVSS	low polyreactivity
QVQLVESGGGLVQAGGSRRLSCAASGSIFYYNTMGWSRQAPGKERELVAAMRFDDGSTYYADSVKGRFTISRDNAKYTVYLQMNSLKPEDTAVYYCSADWIVVSEFGLDYHMDYWGQGNQVTVSS	low polyreactivity
QVQLVESGGGLVQAGGSHRLSCAASGRILVRYAMGCYRHAPGKERELVAAISRGGSTTYADSVKGRFTISRDNAKNTVYLQMNSLKPEDTAFYYCAAGRYPYNRDYWGQGTQVTVSS	high polyreactivity
QVQLVESGGGLVQAGGSLRLSCAASGYIFRYYAMGWYRQAPGKERELVAAISRSGGNTYYADSVKGRFTISRDNAKNTVYLQMNSLKPEDTAVYYCAVVLSTYSYADYDYWGQGTQVTVSS	high polyreactivity
QVQLVESGGGLVQAGGSLRLSCAASGSIFKYYTMGWYRQAPGKERELVAAISWRGGSTYYADSVKGRFTISRDNAKNTVYLQMNSLKPEDTAVYYCAAKSYYNYYYWGQGTQVTVSS	high polyreactivity

Sequence	polyreactivity (PSR sort gate)
QVQLVESGGGLVQAGGSLRLSCAASGSIFFVNAMGWYRQAPGKERELVAAITWNAGRTYYADSVKGRFTISRDNAKNTVYLQMNSLKPEDTAVYYCNARAYYSSAIYDYWGQGTQVTVSS	low polyreactivity
QVQLVESGGGLVQAGGSLRLSCAASGSIFHPNAMGWYRQAPGKERELVAAITKSGGSTYYADSVKGRFTISRDNAKNTVYLQMNSLKPEDTAVYYCAKVSRATVTYDYWGQGTQVTVSS	high polyreactivity
QVHLVESGGGLVQAGGSLRLSCAASGRTFIENAMGWYRQAPGKERELVAAIFSGGSTYYADSVKGRFTISRDNAKKTVDLQLNSLKPEDTAVYYCDARFARYDWSMYYWGQGTQVTVSS	low polyreactivity
QVQLVESGGGLVQAGGSLRLSCAASGRIFGRYTMGWYRQAPGKGRELDAAISDSGDSTYADSVKGRFTISRDNAKNSVYFQMNSLKPEDTAVYFCNAQSGSFAGHEYDYWGQGTQLTVSS	low polyreactivity
QVQLVESGGGLVQAGGSLRLSCAASGYIFLRNSLGWYRQAPGKERELVAAIRRTGGSTYYADSVKGRFTISRDNAKNTVYLQMNSLKPEDTAVYYCAKRSYTGYEYWGQGTQVTVSS	low polyreactivity
QVQLVESGGGLVQAGGSLRLSCAASALTFRVYAMGWYRQAPGKERELVAAISFSGSSTFYADSVKGRFTISRDNAKNTVYLQMNSMKPEDTAVYYCAAGASEAVDVYDYWGQGTQVTVSS	low polyreactivity
QVQLVESGGGLVQAGGSLRLSCAASGRIFYGYTMGWYRQAPGKERELVADISWRGGSTSYADSVKGRFTISRDNAKNTVYLQMNSLKPEDTAVYYCAKRYRPESLYPFYNPYDYWGQGTQVTVSS	low polyreactivity
QVQLVESGGGLVQAGGSLRLSCAASGSTFWPNAMGWYRQAPGKERELVAAITGGGGTNYADSVKGRFTISRDNAKNTVYLQMNSLKPEDTAVYYCAAKKVNSRSHVKYYYWGQGTQVSVSS	high polyreactivity
QDQLVESGGGLVQAGGSLRLSCAASRSIFYGYATRSYRQEPGKESELVAAISYSGDRTYYADSVKGRFTISRDNAKNTVYLQMNSLKPEDTAVYYCAAESRGVGAYYYRGQGTQVTVSS	high polyreactivity
QVQLVESGGGLVQAGGSLRLSCAASGGTFDTYAMGWYRQAPGKERELVAGIDWSGGSTYYADSVKGRFTISRDYAKNTVYLQMNSLKPEDTAVYYCAADFYYPSQMDYWGQGTQVTVSS	low polyreactivity
QVQLVESGGVLVQAGGSLRLSCAASGSIFWSNAMGWSRQAPGKERELVAAITTSDGSTYYADSVKGRFTISRDHAKNTVYLQMNSLKPEDSAVYYCAADASTWYTEEYWGQGTQVTVSS	low polyreactivity
QVQLVESGGGLVQAGGSLRLSCAASGFTFSPNARGWYRQAPGKERELVAAISKGGSSTYYADSVKGRFTISRDNAKNTVYLQMNSLKPEDTAVYYCARPSTHKGYDYWGQGTQVTVSS	high polyreactivity
HVQLVESGGGLVQAGGILRLSFAASGFIFCYYTMGWYRQATGKERELVAAINSGGSTNYADSVKGRFTISRDNAKNTVYLQMNSLKPEDTAVYYCAALVWYSGELFYYWGQGTQVTVSS	low polyreactivity
QVQLVESGGGLVQAGGSHRLSCAASGRTYVYNAMGWYRQAPGKERELDAGITNGGSTNYADSVKGRFTISRDNAKNTVYLQMNSLKPEDTAVYYCAADSRVYPYYFGDFGYWGQGTQVTVSS	low polyreactivity
HAQLQESGVGLVQAGGSLRRSCAASGSIFRFSGMGWYRRAPGKERELVASIGFGSITYYADRVKGRFTISRDNANNTEYLQMNSLKPEDTAVYYCAVQVQDESWLDYWGQGTQVTVSC	low polyreactivity
QVQLVESGGGLVQAGGSLRLSCAASGLTIWRYAMGWYRQAPGKEREFVATISQYGGRTYYAASVKGRFTITRDNAKKTVNLQMNSLKPEDTAVYYCAADDWRWGYDYWGPGTQVTVSS	high polyreactivity
QVQLVESGAGLVQAGGSLRLSCAASGSIFNYYAMVWYRQAPGKERELFAGITTSGGSTYYADSVKGSFTISRDNAKNSVYLQMKSLKPVDTAVYYCGAYDHISSTYFLDDSWGQGTQVTVSS	low polyreactivity
QVQLVESGGGLVQAGGSLRLSCAASGFISDVYAMGWSRQAPGKEREWVAVITWRGSTYYADSVKGRFTISRDNAKYTVYLQMNSLKPEDTAVYYCAAESQGDWAFDYWGQGTQVTVSS	low polyreactivity
EEELVESGGGLVQAGGSLRLSCAASGRTLAGYPMGWYRQAPGKERELVAAISSSGGSTYYADSVKGRFTISRDNAKNTVYLQMNSLKPEDTAVYYCNRYSSYIPYPYNYWGQGTQVTVSS	high polyreactivity
QVQLVESGGGLVQAGGSLRLTCAASGSIFGPNTMGWYRQAPGKERELVAAIRCGGSTNYADSVKWRFTISRDNAKNTVYLQMNSLKPDDTAVYYCIATWNLFPGVLDRYVYWGQGTQVTVSS	low polyreactivity
QVQLVESGGGLFQAGGSLRLSCAASGITFHRYDMVWYRQAPGKERELVADITWCGGSTYYADSVKGRFTISRDNAKNTVYLQMNSLKPEDTAVYYCAADASTYTDTPYDYWGQGSQVTVSS	low polyreactivity
